Target: T1, Soli E2 (Solenopsis invicta)
T1 sequence: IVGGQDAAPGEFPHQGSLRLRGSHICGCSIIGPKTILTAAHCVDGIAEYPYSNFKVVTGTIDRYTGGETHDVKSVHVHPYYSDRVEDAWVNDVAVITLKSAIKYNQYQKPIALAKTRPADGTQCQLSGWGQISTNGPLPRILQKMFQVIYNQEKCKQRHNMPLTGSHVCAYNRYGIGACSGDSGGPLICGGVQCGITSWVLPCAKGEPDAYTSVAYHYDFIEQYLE
Experiment: cell-based or functional assay

Chain of α-1-Proteinase Inhibitor (P01009 25-418 limits assumed): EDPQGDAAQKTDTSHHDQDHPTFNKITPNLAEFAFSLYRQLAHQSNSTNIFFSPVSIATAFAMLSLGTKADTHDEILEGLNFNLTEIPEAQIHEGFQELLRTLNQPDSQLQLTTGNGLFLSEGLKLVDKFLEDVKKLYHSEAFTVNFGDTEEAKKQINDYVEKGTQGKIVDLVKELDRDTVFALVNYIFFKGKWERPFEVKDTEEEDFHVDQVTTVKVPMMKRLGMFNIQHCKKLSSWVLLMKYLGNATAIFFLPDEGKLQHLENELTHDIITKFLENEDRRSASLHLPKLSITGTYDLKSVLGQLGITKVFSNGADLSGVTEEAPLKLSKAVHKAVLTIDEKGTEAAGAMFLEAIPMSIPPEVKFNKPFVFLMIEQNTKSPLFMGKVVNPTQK

Substance | Max Inhibition Rate/IC50 | IC50 [nM]
Boc-Ala-Pro-Val-^p(OPh)2 (peptide) | 666 | 
Boc-Val-Pro Val-^p(OPh)2 (peptide) | 735 | 
Canadian Goose OM |  | 7.68
Canadian Goose OM Domain III (from UniProt P68393 1-54) |  | 27.3
Domestic Goose OM |  | 6.03
Domestic Goose OM Domain III (from UniProt P68389 1-54) |  | 5.58
Eglin C (from UniProt P01051 1-70) |  | 1.89
Potato Inhibitor I |  | 9.13
Potato Inhibitor II |  | 10.1
Z-Ala-Val-^p(OPh)2 (peptide) | 27.2 | 
Z-Gly-Leu-Phe-CK (peptide) | < 0.1 | 
Z-Leu-Phe-^p(OPh)2 (peptide) | < 0.1 | 
Z-Phe-Leu-Phe-^p(OPh)2 (peptide) | < 0.1 | 
Z-Phe-Phe-^p(OPh)2 (peptide) | < 0.1 | 
Z-Pro-Val-^p(OPh)2 (peptide) | 36.6 | 
Z-Val-Val-^p(OPh)2 (peptide) | 76.8 | 
α-1-Proteinase Inhibitor (from UniProt P01009 25-418) |  | 0.604

Source: patent US6399759
